# Measured values as given in patent US20210292396A1.
# Values joined by “and” are separate entries in the source; they are usually repeats but may differ in a detail not shown here. Identical values can stand only once.
# Columns and labels:
# Assay in all cases: cell-based or functional assay
# [1] = biological target: Env of HIV isolate 25710-2.43 (clade C) (HIV)
# [2] = biological target: Env of HIV isolate CH117.4 (clade BC) (HIV)
# [3] = biological target: Env of HIV isolate CNE53 (clade C in Table 7) (HIV)
# [4] = biological target: Env of HIV isolate DU156.12 (clade C) (HIV)
# [5] = biological target: HIV Env of isolate 286.36 (HIV)
# [6] = biological target: HIV Env of isolate 3016.v5.c45 (HIV)
# [7] = biological target: HIV Env of isolate 6838.v1.c35 (HIV)
# [8] = biological target: HIV Env of isolate CAP244.D3 (HIV)
# [9] = biological target: HIV Env of isolate CNE19 (HIV)
# [10] = biological target: HIV Env of isolate TV1.29 (HIV)
# [11] = biological target: HIV Env of isolate 1012_11_TC21_3257 (HIV)
# [12] = biological target: HIV Env of isolate 1394C9G1(Rev-) (HIV)
# [13] = biological target: HIV Env of isolate 191084_B7-19 (HIV)
# [14] = biological target: HIV Env of isolate 235-47 (HIV)
# [15] = biological target: HIV Env of isolate 246F_C1G (HIV)
# [16] = biological target: HIV Env of isolate 263-8 (HIV)
# [17] = biological target: HIV Env of isolate 3103.v3.c10 (HIV)
# [18] = biological target: HIV Env of isolate 3301.v1.c24 (HIV)
# [19] = biological target: HIV Env of isolate 6041.v3.c23 (HIV)
# [20] = biological target: HIV Env of isolate 62357_14_D3_4589 (HIV)
# [21] = biological target: HIV Env of isolate 6240_08_TA5_4622 (HIV)
# [22] = biological target: HIV Env of isolate 6480.v4.c25 (HIV)
# [23] = biological target: HIV Env of isolate 6535.3 (HIV)
# [24] = biological target: HIV Env of isolate 6811.v7.c18 (HIV)
# [25] = biological target: HIV Env of isolate 6952.v1.c20 (HIV)
# [26] = biological target: HIV Env of isolate 7030102001E5(Rev-) (HIV)
# [27] = biological target: HIV Env of isolate 928-28 (HIV)
# [28] = biological target: HIV Env of isolate BJOX009000.02.4 (HIV)
# [29] = biological target: HIV Env of isolate CNE17 (HIV)
# [30] = biological target: HIV Env of isolate Ce1172_H1 (HIV)
# [31] = biological target: HIV Env of isolate Ce1176_A3 (HIV)
# [32] = biological target: HIV Env of isolate Ce704809221_1B3 (HIV)
# [33] = biological target: HIV Env of isolate Du172.17 (HIV)
# [34] = biological target: HIV Env of isolate Du422.1 (HIV)
# [35] = biological target: HIV Env of isolate HIV-0013095-2.11 (HIV)
# [36] = biological target: HIV Env of isolate HIV-001428-2.42 (HIV)
# [37] = biological target: HIV Env of isolate HIV-16055-2.3 (HIV)
# [38] = biological target: HIV Env of isolate HIV-16845-2.22 (HIV)
# [39] = biological target: HIV Env of isolate P0402_C2_11 (HIV)
# [40] = biological target: HIV Env of isolate PVO.4 (HIV)
# [41] = biological target: HIV Env of isolate Q23.17 (HIV)
# [42] = biological target: HIV Env of isolate QH0692.42 (HIV)
# [43] = biological target: HIV Env of isolate REJO4541.67 (HIV)
# [44] = biological target: HIV Env of isolate SC05_8C11_2344 (HIV)
# [45] = biological target: HIV Env of isolate SC422661.8 (HIV)
# [46] = biological target: HIV Env of isolate T251-18 (HIV)
# [47] = biological target: HIV Env of isolate TRJO4551.58 (HIV)
# [48] = biological target: HIV Env of isolate TRO.11 (HIV)
# [49] = biological target: HIV Env of isolate WEAU_d15_410_5017 (HIV)
# [50] = biological target: HIV Env of isolate X1193_c1 (HIV)
# [51] = biological target: HIV Env of isolate X2088_c9 (HIV)
# [52] = biological target: HIV Env of isolate ZM233M.PB6 (HIV)
binder,measurement,setting,value
"ePGT121.18 (ePGT121.18.H1 VH and ePGT121.17.L1 VL) (antibody, V domains shown) VH: QMQLQESGPGLVKPGETLSLTCSVSGASISSSYWSWLRETPGKGLEWIGYTHHSGDTNYAPSLKSRVHLGLHPSKNQVSLSLTSVTAADTAVYYCARTLHGRRIYGVVAFNEYYTYFYWPTWGKGTQVTVSS VL: SDISVAPGETVRITCGGESIGSRAVQWYQHRPGQAPRLIIYNNQDRPPGIPERFSGSPDIDFGTTATLTISNVEAGDEATYYCHIWDSRRPTNWELGPGTTLTVL","IC50, pseudovirus neutralization",[1],4 ng/mL
same,"IC50, pseudovirus neutralization",[2],> 50000 ng/mL
same,"IC50, pseudovirus neutralization",[3],3 ng/mL
same,"IC50, pseudovirus neutralization",[4],1 ng/mL
same,"IC80, pseudovirus neutralization (M1)",[5],3 ng/mL
same,"IC80, pseudovirus neutralization (M2)",[5],4 ng/mL
same,"IC80, pseudovirus neutralization (M1)",[6],> 50000 ng/mL
same,"IC80, pseudovirus neutralization (M2)",[6],> 50000 ng/mL
same,"IC80, pseudovirus neutralization (M1)",[7],2590 ng/mL
same,"IC80, pseudovirus neutralization (M2)",[7],13400 ng/mL
same,"IC80, pseudovirus neutralization (M1)",[8],> 50000 ng/mL
same,"IC80, pseudovirus neutralization (M2)",[8],> 50000 ng/mL
same,"IC80, pseudovirus neutralization (M1)",[9],6 ng/mL
same,"IC80, pseudovirus neutralization (M2)",[9],4 ng/mL
same,"IC80, pseudovirus neutralization (M1)",[10],5 ng/mL
same,"IC80, pseudovirus neutralization (M2)",[10],8 ng/mL
"ePGT121.15 (ePGT121.15.H6 VH and ePGT121.15.L1 VL) (antibody, V domains shown) VH: QMQLQESGPGLVKPGETLSLTCSVSGASISSSYWSWLRETPGKGLEWIGYTHHSGDTNYAPSLKSRVHLGLHPSKNQVSLSLTSVTAADTAVYYCARTLHGRRIYGVVAFNEFFTYFYWEVWGKGTQVTVSS VL: SDISVAPGETVRISCGGESIGSRAVQWYQHRAGQAPKLIIYNNQDRPPGIPERFSGSPDIDFGTTATLTITNVEAGDEATYYCHIWDSRRPTNWVFGGGTTLTVL","IC50, pseudovirus neutralization",[1],6 ng/mL
same,"IC50, pseudovirus neutralization",[2],> 50000 ng/mL
same,"IC50, pseudovirus neutralization",[3],7 ng/mL
same,"IC50, pseudovirus neutralization",[4],2 ng/mL
same,"IC80, pseudovirus neutralization",[5],6 ng/mL
same,"IC80, pseudovirus neutralization",[6],> 50000 ng/mL
same,"IC80, pseudovirus neutralization",[7],1340 ng/mL
same,"IC80, pseudovirus neutralization",[8],> 50000 ng/mL
same,"IC80, pseudovirus neutralization",[9],30 ng/mL
same,"IC80, pseudovirus neutralization",[10],10 ng/mL
"ePGT121.18.17 (ePGT121.18.H17 VH and ePGT121.17.L1 VL) (antibody, V domains shown) VH: QMQLQESGPGLVKPGETLSLTCSVSGASISSSYWSWLRETPGKGLEWIGYTHHSGDTNYAPSLKSRVTIGLDPSKNQVSLSLTSVTAADTAVYYCARTLHGRRIYGVVAFNEYYTYFYWPTWGKGTQVTVSS VL: SDISVAPGETVRITCGGESIGSRAVQWYQHRPGQAPRLIIYNNQDRPPGIPERFSGSPDIDFGTTATLTISNVEAGDEATYYCHIWDSRRPTNWELGPGTTLTVL","IC50, pseudovirus neutralization",[1],8 ng/mL
same,"IC50, pseudovirus neutralization",[2],> 50000 ng/mL
same,"IC50, pseudovirus neutralization",[3],6 ng/mL
same,"IC50, pseudovirus neutralization",[4],3 ng/mL
same,"IC80, pseudovirus neutralization",[5],6 ng/mL
same,"IC80, pseudovirus neutralization",[6],> 50000 ng/mL
same,"IC80, pseudovirus neutralization",[7],4340 ng/mL
same,"IC80, pseudovirus neutralization",[8],> 50000 ng/mL
same,"IC80, pseudovirus neutralization",[9],14 ng/mL
same,"IC80, pseudovirus neutralization",[10],31 ng/mL
"ePGT121.15.H2.L1 (antibody, V domains shown) VH: QMQLQESGPGLVKPGETLSLTCSVSGASISSSYWSWLRETPGKGLEWIGYTHHSGDTNYAPSLKSRVHLGLHPSKNQVSLSLTSVTAADTAVYYCARTLHGRRIYGVVAFNEWFTYFYWEVWGKGTQVTVSS VL: SDISVAPGETVRISCGGESIGSRAVQWYQHRAGQAPKLIIYNNQDRPPGIPERFSGSPDIDFGTTATLTITNVEAGDEATYYCHIWDSRRPTNWVFGGGTTLTVL",neutralization (Table 6 value),[11],0.00172
same,neutralization (Table 6 value),[12],0.00203
same,neutralization (Table 6 value),[13],0.00196
same,neutralization (Table 6 value),[14],0.00466
same,neutralization (Table 6 value),[15],0.0024
same,neutralization (Table 6 value),[16],0.00351 and 0.00488
same,neutralization (Table 6 value),[17],0.00436
same,neutralization (Table 6 value),[18],0.00106
same,neutralization (Table 6 value),[19],0.275
same,neutralization (Table 6 value),[20],0.0109
same,neutralization (Table 6 value),[21],0.004
same,neutralization (Table 6 value),[22],4.5e-05
same,neutralization (Table 6 value),[23],0.00104
same,neutralization (Table 6 value),[24],0.00194
same,neutralization (Table 6 value),[25],0.000842
same,neutralization (Table 6 value),[26],0.00197
same,neutralization (Table 6 value),[27],0.0488
same,neutralization (Table 6 value),[28],0.0259
same,neutralization (Table 6 value),[29],0.00577
same,neutralization (Table 6 value),[9],0.000602
same,neutralization (Table 6 value),[30],0.000582
same,neutralization (Table 6 value),[31],0.00206
same,neutralization (Table 6 value),[32],0.00143
same,neutralization (Table 6 value),[33],0.000836
same,neutralization (Table 6 value),[34],0.00326
same,neutralization (Table 6 value),[35],0.698
same,neutralization (Table 6 value),[36],0.00136
same,neutralization (Table 6 value),[37],0.698
same,neutralization (Table 6 value),[38],0.0222
same,neutralization (Table 6 value),[39],0.00193
same,neutralization (Table 6 value),[40],0.00346
same,neutralization (Table 6 value),[41],0.00106
same,neutralization (Table 6 value),[42],0.0116
same,neutralization (Table 6 value),[43],0.435
same,neutralization (Table 6 value),[44],0.00664
same,neutralization (Table 6 value),[45],0.00145
same,neutralization (Table 6 value),[46],0.0252
same,neutralization (Table 6 value),[47],0.00583
same,neutralization (Table 6 value),[48],0.00115
same,neutralization (Table 6 value),[49],0.00168
same,neutralization (Table 6 value),[50],0.000174
same,neutralization (Table 6 value),[51],0.000985
same,neutralization (Table 6 value),[52],0.0048 and 0.00672
